{"source": "paper PMC8092281", "about": "“Two Distinct Conformations in 34 FliF Subunits Generate Three Different Symmetries within the Flagellar MS-Ring” (mBio, 2021)", "proteins": {"B1": {"name": "Salmonella FliF (MS-ring of the purified MS-FliG ring complex) (natural protein, UniProt P15928 1-560, looked up)", "chain": "MSATASTATQPKPLEWLNRLRANPRIPLIVAGSAAVAIVVAMVLWAKTPDYRTLFSNLSDQDGGAIVAQLTQMNIPYRFANGSGAIEVPADKVHELRLRLAQQGLPKGGAVGFELLDQEKFGISQFSEQVNYQRALEGELARTIETLGPVKSARVHLAMPKPSLFVREQKSPSASVTVTLEPGRALDEGQISAVVHLVSSAVAGLPPGNVTLVDQSGHLLTQSNTSGRDLNDAQLKFANDVESRIQRRIEAILSPIVGNGNVHAQVTAQLDFANKEQTEEHYSPNGDASKATLRSRQLNISEQVGAGYPGGVPGALSNQPAPPNEAPIATPPTNQQNAQNTPQTSTSTNSNSAGPRSTQRNETSNYEVDRTIRHTKMNVGDIERLSVAVVVNYKTLADGKPLPLTADQMKQIEDLTREAMGFSDKRGDTLNVVNSPFSAVDNTGGELPFWQQQSFIDQLLAAGRWLLVLVVAWILWRKAVRPQLTRRVEEAKAAQEQAQVRQETEEAVEVRLSKDEQLQQRRANQRLGAEVMSQRIREMSDNDPRVVALVIRQWMSNDHE", "notes": "FliF, flagellar M-ring protein, Salmonella; 60-kDa protein with two transmembrane helices and a large periplasmic region; also called St-FliF; copies: 34"}}, "target": "the molecule itself", "assay": "cryo-EM structure; single-particle cryoEM of the purified Salmonella MS-FliG ring complex in 25 mM Tris-HCl pH 8.0, 50 mM NaCl, 1 mM EDTA, 0.1% DDM; 8.6 Å (C1) and 6.1 Å (C11) reconstructions", "data": [{"protein": "B1", "values": [{"measurement": "stoichiometry N", "value": 34}]}]}
